Test results from publication PMC3961330.

Key:
[1] = tested on: PPARalpha (rat liver nuclear extract);RXRalpha (rat liver nuclear extract) (rat;rat); experiment: EMSA with anti-PPARalpha supershift; details: OEA-treated rats; anti-PPARalpha antibody; 10 mM HEPES pH 7.9, 150 mM KCl, 1 mM DTT, 0.2 ug/uL poly(dI-C), 5% glycerol; 15 min on ice then 15 min with probe at room temperature; 8% native PAGE, 0.5x TBE
[2] = tested on: PPARalpha (rat liver nuclear extract);RXRalpha (rat liver nuclear extract) (rat;rat); experiment: EMSA; details: OEA-treated rats; 10 mM HEPES pH 7.9, 150 mM KCl, 1 mM DTT, 0.2 ug/uL poly(dI-C), 5% glycerol; 15 min on ice then 15 min with probe at room temperature; 8% native PAGE, 0.5x TBE

ACOX-PPRE gave a binding signal (fold vs vehicle (supershifted complex)) [1] greater than 3 and a binding signal (fold vs vehicle) [2] of 2.
